# Literature values, collected in patent publication US12150974B2, “Conjugates with inhibitory receptor ligands to induce anergy in insulin-binding B cells” (University of Kansas, priority 2021, dated 2024).
# Target: T1, CD20 (Homo sapiens, UniProt P11836)
# T1 construct: host or cells: B cells of trial patients (endogenous)
# T1 sequence (P11836 1-297): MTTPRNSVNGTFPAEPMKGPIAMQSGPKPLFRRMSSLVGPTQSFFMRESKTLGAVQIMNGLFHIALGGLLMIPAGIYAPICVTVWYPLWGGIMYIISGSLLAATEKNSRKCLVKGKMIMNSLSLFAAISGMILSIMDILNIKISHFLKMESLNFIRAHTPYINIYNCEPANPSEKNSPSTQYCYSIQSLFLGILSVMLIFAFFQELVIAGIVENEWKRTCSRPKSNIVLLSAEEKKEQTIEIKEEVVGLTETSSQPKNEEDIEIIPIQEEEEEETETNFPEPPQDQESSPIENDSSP
# Settings: at 1 year
substance,measurement,value
rituximab,clinical outcome in T1D,beta cell preservation
